Test results published in patent publication US20240279288A1, “APPLICATION OF PLANT JAZ PROTEINS AND DERIVED POLYPEPTIDES IN PREVENTION AND TREATMENT OF HUMAN AND ANIMAL TUMORS” (ANYANG INSTITUTE OF SINO-COTTON INDUSTRY INNOVATION, priority 2021, published 2024).
Entries after “also recorded” stand apart in the source; their conditions may differ.

What was measured:
[1] = system: breast epithelial cells (MCF10A); assay: CCK8 cell viability detection, MCF10A; type: cell-based; settings: with the increase of GhJAZ1 protein concentration
Experimental: (§1) CCK8 cell viability detection: cell suspension was seeded in 96-well plates at a concentration of 5×10^4 cells/ml (100 μL/well). The plates were placed in the incubator for pre-culture (at 37° C., 5% CO2), and control and protein agents were added to each well 24 h after seeding. The plates were then placed in the incubator for 24 h, followed by addition of 10 μL CCK8 solution into each well and incubation of the plates in the incubator for 0.5-2 h before the absorbance measurement at 450 nm using a microplate reader.
We constructed GhJAZ1 prokaryotic expression plasmid with His-tag to express proteins (see step 2 in Example 4), and then a GhJAZ1 protein, along with 6 His tags, which was approximately 30 KD in size was found by WB detection (A in FIG. 7). The purified GhJAZ1 protein was used to treat breast cancer cells (MCF7) and breast epithelial cells (MCF10A), and the cell viability was measured with CCK8.

[2] = system: cervical cancer cells Hela; assay: CCK8 cell viability detection, Hela; type: cell-based, human; settings: CCK8, 24 h treatment; read-out: IC50, inhibition of Hela cells
Experimental: as §1
Analysis of effect of GhJAZ1 protein on the cell cycle and apoptosis of tumor cells

[3] = system: MCF7 breast cancer cells; assay: Apoptosis detection (Annexin V-FITC/PI), MCF7; type: cell-based, human; settings: 0.691 μM, 24 h, vs PBS
Experimental: Apoptosis detection: cells were collected in 1.5 EP tubes and centrifuged at 300 g for 5 min, with the supernatant discarded, followed by collecting the cells, washing with PBS and resuspending. 1×10^5 resuspended cells were taken and centrifuged at 300 g for 5 min, with the supernatant discarded. The cells were washed with PBS, resuspended by adding 500 μl of diluted 1×Annexin V Binding Buffer working solution, and then a staining solution of 5 μL of Annexin V-FITC and 5 μL of propidium iodide (PI) were added and mixed well by vortex, followed by incubation at room temperature in the dark for 15-20 min, and detection on the instrument. Specifically, the Annexin V-FITC/PI fluorescent dual staining cell apoptosis detection kit (Wuhan Pricella Life Science & Technology Co., Ltd., Cat. No.: P-CA-201) was used.

[4] = system: downstream genes of c-Myc in normal cell MCF10A; assay: RT-PCR of c-Myc downstream genes, MCF10A; type: cell-based, human
Experimental: Identification at the RNA level: RNA was extracted using RNA extraction kit (RNAprep Pure Polysaccharide Polyphenol Plant Total RNA Extraction Kit (DP441), manufacturer: TIANGEN BIOTECH (BEIJING) CO., LTD.), and then cDNA was obtained using two-step reverse transcription kit (a third-generation premix for two-step de-genomization and reverse transcription, Cat. No.: MR05201). cDNA as a template was added into a 96-well plate, with addition of SYBR®Green I chimeric dye (an antibody dye quantitative PCR premix, Cat. No.: MQ10101) and gene primers for three-step qPCR amplification. Finally, the relative gene expression was calculated based on the Ct value.
Wherein, the sequences of primers were as follows: […]

[5] = system: GhNINJA; assay: Luciferase experiment in tobacco leaves with GhNINJA; type: binding, cotton; settings: no fluorescence on the control
From the text: (§2) Method of the luciferase experiment: GhJAZ1 (corresponding encoding gene sequence set forth in SEQ ID No. 39) was subcloned into pCAMBIA-CLuc vector (Chen, H., et al. “Firefly Luciferase Complementation Imaging Assay for Protein-Protein Interactions in Plants.” Plant Physiology 146.2(2008):368-376.) between KpnI and SalI cleavage sites, and the transcription factors such as GhMYC2 (corresponding encoding gene sequence set forth in SEQ ID No. 72), GhNINJA (corresponding encoding gene sequence set forth in SEQ ID No. 74), and GhCOI1 (corresponding encoding gene sequence set forth in SEQ ID No. 80) were subcloned into pCAMBIA-NLuc (Chen, H., et al. “Firefly Luciferase Complementation Imaging Assay for Protein-Protein Interactions in Plants.” Plant Physiology 146.2(2008):368-376.) between KpnI and SalI cleavage sites, respectively. […] Luciferase substrates were applied at the infected leaves before taking images and placed in a dark room for at least 6 min to quench fluorescence, followed by observation on the Nightowl-II LB983 instrument, using IndigoBasic software under the luciferase-5 min setting conditions.

[6] = system: GhCOI1; assay: Luciferase experiment in tobacco leaves with GhCOI1; type: binding, cotton; settings: no fluorescence on the control
From the text: as §2

[7] = molecular target: c-Myc (Homo sapiens, UniProt P01106); assay: LUC experiment in tobacco leaves with c-Myc; type: binding; parameters: with the full length of c-Myc and NMYC, respectively; expressed in transfected cells; host or cells: yeast Y2HGold
From the text: Using the method of LUC experiment, c-Myc (NCBI accession number: NM_002467.6) was subcloned to pCAMBIA NLuc vector (Chen, H., et al. “Firefly Luciferase Complementation Imaging Assay for Protein-Protein Interactions in Plants.” Plant Physiology 146.2(2008):368-376.) between the KpnI and SalI cleavage sites, and GhJAZ1 (SEQ ID No. 39) was subcloned to pCAMBIA-CLuc vector (Chen, H., et al. “Firefly Luciferase Complementation Imaging Assay for Protein-Protein Interactions in Plants.” Plant Physiology 146.2(2008):368-376.) between the KpnI and SalI cleavage sites. The constructed recombinant plasmids verified to be positive by sequencing were transformed into Agrobacterium GV3101 (pSoup-p19) (Shanghai Weidi biology technology co., Ltd, Cat. No.: AC1003), which were co-transfected into tobacco leaves. 2-3 days after injection, the infected leaves coated with the fluorescent substrate were placed in a dark chamber of the instrument for at least 6 min before taking images to quench fluorescence, followed by observation on the Nightowl-II LB983 instrument, using IndigoBasic software under the luciferase-5 min setting conditions. Cultivation was performed after co-infection. If there is interaction, LUC luciferase is expressed, and luminescence is detected after substrate application. As shown in F in FIG. 6, GhJAZ1 interacts with c-Myc.

GhNINJA, sequence (as listed by the source): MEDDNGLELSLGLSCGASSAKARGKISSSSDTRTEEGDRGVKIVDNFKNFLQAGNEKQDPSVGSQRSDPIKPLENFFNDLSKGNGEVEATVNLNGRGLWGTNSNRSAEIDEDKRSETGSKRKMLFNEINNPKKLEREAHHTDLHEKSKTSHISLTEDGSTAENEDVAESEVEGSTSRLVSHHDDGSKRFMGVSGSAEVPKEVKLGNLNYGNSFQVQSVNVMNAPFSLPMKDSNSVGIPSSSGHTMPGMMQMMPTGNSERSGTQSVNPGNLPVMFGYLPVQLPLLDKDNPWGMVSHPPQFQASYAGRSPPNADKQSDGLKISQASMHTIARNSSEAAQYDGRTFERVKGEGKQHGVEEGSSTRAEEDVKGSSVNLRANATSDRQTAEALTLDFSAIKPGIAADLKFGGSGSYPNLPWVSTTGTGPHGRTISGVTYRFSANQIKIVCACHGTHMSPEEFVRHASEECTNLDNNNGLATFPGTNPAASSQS
GhCOI1, sequence (as listed by the source): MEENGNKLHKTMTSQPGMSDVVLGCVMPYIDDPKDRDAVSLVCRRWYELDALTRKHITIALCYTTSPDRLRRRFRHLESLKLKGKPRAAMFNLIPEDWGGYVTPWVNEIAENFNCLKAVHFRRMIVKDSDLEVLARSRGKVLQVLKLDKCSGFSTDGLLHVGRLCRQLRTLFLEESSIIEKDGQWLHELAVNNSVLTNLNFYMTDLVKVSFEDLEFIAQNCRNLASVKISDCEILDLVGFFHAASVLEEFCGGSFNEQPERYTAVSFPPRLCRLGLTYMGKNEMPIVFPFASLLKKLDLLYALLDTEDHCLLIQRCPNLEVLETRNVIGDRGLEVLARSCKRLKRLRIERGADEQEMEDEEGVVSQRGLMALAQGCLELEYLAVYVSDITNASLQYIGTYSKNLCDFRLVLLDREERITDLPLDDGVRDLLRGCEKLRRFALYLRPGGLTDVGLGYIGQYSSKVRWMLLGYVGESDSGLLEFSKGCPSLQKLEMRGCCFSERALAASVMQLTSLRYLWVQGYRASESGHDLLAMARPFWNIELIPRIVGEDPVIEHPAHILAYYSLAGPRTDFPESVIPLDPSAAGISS
c-Myc, sequence (P01106 whole entry): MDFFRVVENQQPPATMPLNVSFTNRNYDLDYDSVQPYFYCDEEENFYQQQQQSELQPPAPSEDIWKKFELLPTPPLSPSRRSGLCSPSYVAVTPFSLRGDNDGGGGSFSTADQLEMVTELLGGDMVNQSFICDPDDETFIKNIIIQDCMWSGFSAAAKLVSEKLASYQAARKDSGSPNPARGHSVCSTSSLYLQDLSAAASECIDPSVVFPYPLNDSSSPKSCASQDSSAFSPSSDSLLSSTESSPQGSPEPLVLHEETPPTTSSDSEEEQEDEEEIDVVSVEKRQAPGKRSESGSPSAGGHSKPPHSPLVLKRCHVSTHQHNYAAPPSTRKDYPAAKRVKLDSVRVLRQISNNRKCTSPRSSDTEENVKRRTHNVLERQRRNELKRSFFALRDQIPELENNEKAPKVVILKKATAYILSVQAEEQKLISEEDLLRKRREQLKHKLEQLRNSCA

B1: GhJAZ1: cotton JAZ1 protein, gene number Gh_A05G0260, sequence SEQ ID No. 4; prokaryotically expressed with His tag, about 30 KD (protein)
chain: MSSCSESTAMKPARSPEKPSFAQTCNLLSQYLKEKGSFGDLSLGMTCNVEANGTPVVPPPTMNLFPLNDKSDDVCGRNGGNPKNLTSMDLFPQQAGLASKDDSPNKLEPQTAPMTIFYGGQVIVFNDFPANKAKEIMLLASNSSSQSNNSFNPIPFTSSIARSPIESSIGVPPTSKPVHPAQRAVPGDLPIARRASLHRFLEKRKDRITAKAPYQINNSAAAPSLSGDNKSWLGLAAQSP
modifications: His tag
notes: prokaryotically expressed with His tag, about 30 KD
- viability of MCF10A cells [1]: did not change significantly; also recorded: without inhibitory effect
- IC50 [2]: 553 nM
- apoptosis rate of cancer cells (MCF7) [3]: increased
- expression of Bcl2 and MCM5 [4]: significantly decreased but at a minor extent
- expression of P21C, CNB1, CCND1, and CCNE1 ([4]; at a minor extent): significantly increased
- fluorescence with GhNINJA after applying luciferase substrate [5]: stronger fluorescence
- fluorescence with GhCOI1 after applying luciferase substrate [6]: weaker fluorescence
- interaction with c-Myc [7]: interacts
